Source: US20180155413A1 (AstraZeneca / MedImmune, published 2018)

What was measured:
Experiment in all cases: cell-based or functional assay
[1] = target: HA of ca B/Brisbane/60/2008 (victoria) (influenza B virus)
[2] = target: HA of B/Nevada/3/2011 (victoria) (influenza B virus)
[3] = target: HA of B/Sichuan/379/99 (yamagata) (influenza B virus)
[4] = target: HA of ca B/Beijing/243/97 (victoria) (influenza B virus)
[5] = target: HA of B/New Jersey/01/2012 (victoria) (influenza B virus)
[6] = target: HA of B/Arizona/8/2013 (yamagata) (influenza B virus)
[7] = target: HA of ca B/Victoria/504/2000 (yamagata) (influenza B virus)
[8] = target: HA of ca A/chicken/Hong Kong/G9/97 (H9N2) (influenza A virus)
[9] = target: HA of B/Wisconsin/1/2010 (yamagata) (influenza B virus)
[10] = target: HA of B/Phuket/3073/2013 (yamagata) (influenza B virus)

B1: GL20/39 BiS4 100/44 (bispecific antibody)
light: DIQMTQSPSSLSASVGDRVTITCRTSQSLSSYTHWYQQKPGKAPKLLIYAASSRGSGVPSRFSGSGSGTDFTLTISSLQPEDFATYYCQQSRTFGQGTKVEIKRTVAAPSVFIFPPSDEQLKSGTASVVCLLNNFYPREAKVQWKVDNALQSGNSQESVTEQDSKDSTYSLSSTLTLSKADYEKHKVYACEVTHQGLSSPVTKSFNRGEC
heavy: not shown
Neutralization (IC50) [1]: 51.8 nM | Neutralization (IC50) [2]: 38.2 nM | Neutralization (IC50) [3]: 12.1 nM | Neutralization (IC50) [4]: 25.9 nM | Neutralization (IC50) [5]: 23 nM | Neutralization (IC50) [6]: 2.2 nM | Neutralization (IC50) [7]: 1.3 nM | Neutralization (IC50) [8]: 1.6 nM | Neutralization (IC50) [9]: 4.4 nM | Neutralization (IC50) [10]: 15.4 nM
